Measured values reported in US20230113734A1.

Biological target: SARS-CoV-2 S protein (spike protein) (SARS-CoV-2) (UniProt P0DTC2)
Assay: ELISA, S proteins on plate (the reference itself)

positive control antibody (CR3022)
Binding ability (relative to positive control antibody): 1
